Results from article PMC10851674 (Analytical chemistry, 2022).

Molecular target: T1, rat cytochrome P450 reductase (rat, UniProt P00388 1-678)
T1 sequence (looked up): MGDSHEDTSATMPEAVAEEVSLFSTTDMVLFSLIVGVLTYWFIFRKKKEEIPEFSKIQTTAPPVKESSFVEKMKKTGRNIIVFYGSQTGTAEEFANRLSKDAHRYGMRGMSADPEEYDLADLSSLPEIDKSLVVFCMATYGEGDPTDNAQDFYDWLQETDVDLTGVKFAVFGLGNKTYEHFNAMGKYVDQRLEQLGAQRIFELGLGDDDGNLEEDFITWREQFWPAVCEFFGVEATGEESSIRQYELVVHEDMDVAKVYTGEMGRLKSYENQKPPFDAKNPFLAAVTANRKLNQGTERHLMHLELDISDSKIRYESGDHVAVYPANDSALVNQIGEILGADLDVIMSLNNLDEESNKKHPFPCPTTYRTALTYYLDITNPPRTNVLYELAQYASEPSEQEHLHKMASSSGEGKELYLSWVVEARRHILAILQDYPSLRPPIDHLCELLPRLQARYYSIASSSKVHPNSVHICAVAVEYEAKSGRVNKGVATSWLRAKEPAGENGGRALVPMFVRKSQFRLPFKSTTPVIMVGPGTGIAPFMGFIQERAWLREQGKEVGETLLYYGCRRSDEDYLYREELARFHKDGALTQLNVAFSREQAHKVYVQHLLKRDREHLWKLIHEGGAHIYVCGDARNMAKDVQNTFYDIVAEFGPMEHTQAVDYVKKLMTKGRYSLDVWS
Experiment: SEC

B1: rabbit cytochrome P450 2B4 (enzyme, UniProt P00178 1-491, looked up)
chain: MEFSLLLLLAFLAGLLLLLFRGHPKAHGRLPPGPSPLPVLGNLLQMDRKGLLRSFLRLREKYGDVFTVYLGSRPVVVLCGTDAIREALVDQAEAFSGRGKIAVVDPIFQGYGVIFANGERWRALRRFSLATMRDFGMGKRSVEERIQEEARCLVEELRKSKGALLDNTLLFHSITSNIICSIVFGKRFDYKDPVFLRLLDLFFQSFSLISSFSSQVFELFPGFLKHFPGTHRQIYRNLQEINTFIGQSVEKHRATLDPSNPRDFIDVYLLRMEKDKSDPSSEFHHQNLILTVLSLFFAGTETTSTTLRYGFLLMLKYPHVTERVQKEIEQVIGSHRPPALDDRAKMPYTDAVIHEIQRLGDLIPFGVPHTVTKDTQFRGYVIPKNTEVFPVLSSALHDPRYFETPNTFNPGHFLDANGALKRNEGFMPFSLGKRICLGEGIARTELFLFFTTILQNFSIASPVPPEDIDLTPRESGVGNVPPSYQIRFLAR
binding result: binds
